Data as given in PMC8597016.

Target: Biotinylated CD11b I domain (human)
Assay: BLI

Substance | Kd
CC8 LukAB (complex) | 9.41 nM
CC30 LukAB (complex) | 214 nM
